Assay [1] concerns the target T1, hTIGIT-His protein (human, UniProt Q495A1 22-141).
T1 construct: Coated on the ELISA plate at 0.5 µg/mL; also called antigen hTIGIT-his protein; not shown: His tag
T1 sequence (looked up): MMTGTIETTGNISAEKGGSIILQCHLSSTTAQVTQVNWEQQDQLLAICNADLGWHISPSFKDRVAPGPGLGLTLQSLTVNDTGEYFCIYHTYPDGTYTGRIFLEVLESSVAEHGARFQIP
The assay is described as follows: ELISA on hTIGIT-His, method as in Example 3. The method, then:
(§1) The hTIGIT-his protein was diluted to 0.5 μg/mL with CBS buffer, coated in an ELISA plate in 50 μL/well, and left at 4° C. overnight. The plate was washed with PBST buffer for three times, 200 μL/well, and patted dry. 1% of BSA (dissolved in PBS) was then added, 200 μL/well, and the plate was incubated at 37° C. for 2 hours. After incubation, the plate was washed with PBST for three times, 200 μL/well, and patted dry. […] 100 μL was sucked with a multi-channel pipette, transferred into the ELISA plate, and incubated at 37° C. for 1 hour. After incubation, the plate was washed with PBST for three times, 200 μL/well, and patted dry. An anti-mouse IgG antibody labeled by HRP was diluted with 1% of BSA (dissolved in PBST) (diluted at 1:5000), 100 μL/well. Incubation was performed at 37° C. for 1 hour. After incubation, the plate was washed with PBST for three times, 200 μL/well, and patted dry. 50 μL of TMB chromogen solution was added into each well for chromogenic reaction, and the reaction time was 5 minutes in the dark. After 5 minutes of incubation, hydrochloric acid stop solution was directly added to stop the reaction in 50 μL/well. Absorbances at 450 nm (OD450) were detected by the light absorption mode of a microplate reader.

Assay [2] deals with T2, hTIGIT on the surface of 293F-hTIGIT-short #1B1 cells (human, UniProt Q495A1 22-162, limits assumed).
T2 construct: domain: extracellular domain and transmembrane domain; It is a truncated ('short') construct without the cytoplasmic part; also called 293F-hTIGIT-short cells; 293F-hTIGIT-short #1B1 cell line
T2 sequence (looked up): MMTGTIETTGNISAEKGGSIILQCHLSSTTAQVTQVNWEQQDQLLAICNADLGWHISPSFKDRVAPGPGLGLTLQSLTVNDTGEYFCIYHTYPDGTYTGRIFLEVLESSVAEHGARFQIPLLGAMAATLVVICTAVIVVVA
Briefly: flow cytometry on cells expressing hTIGIT, method as in Example 3. The procedure:
(§2) The 293F-hTIGIT-short #1B1 cell line was digested, terminated, centrifuged, resuspended and counted, and the cell density was adjusted to 4×10⁶ cells/mL. According to 50 μL/tube, 20×10⁴ cells were added into 1.5 mL EP tubes. […] The blank group was added with 150 μL of PBS as a blank control. Gentle blowing and mixing were performed, and incubation was performed on ice for 1 hour. After incubation, 500 μL of PBS was added for centrifugal washing once, centrifugation was performed at 2000 rpm for 5 minutes, and the supernatants were discarded. A fluorescent secondary antibody was added (Alexa® 488 fluorescently labeled anti-mouse IgG antibody was diluted with PBS (diluted at 1:500) and added to the corresponding tubes in 200 μL/tube), gentle blowing and mixing were performed, and incubation was performed on ice in the dark for 30 minutes. After 30 minutes of incubation, signal detection was performed with a flow cytometer.
The method was the same as that in example 3.

Assay [3] addresses T2, hTIGIT on the surface of …. The assay is described as follows: flow cytometry competition on 293F-hTIGIT-short cells; competitor PVR (method as in Example 4).
Assay [4] has as its target T1, hTIGIT-His protein. The assay is described as follows: ELISA, hTIGIT-His coated at 0.5 µg/mL. The procedure: as §1
On the technique in general: An ELISA detects its analyte on a solid surface through an enzyme-linked reagent.

Assay [5] concerns the target T3, mouse-derived TIGIT protein (accession number: NP_001139797.1) (mouse, UniProt P86176 29-148, limits assumed).
T3 construct: also called mouse TIGIT
T3 sequence (looked up): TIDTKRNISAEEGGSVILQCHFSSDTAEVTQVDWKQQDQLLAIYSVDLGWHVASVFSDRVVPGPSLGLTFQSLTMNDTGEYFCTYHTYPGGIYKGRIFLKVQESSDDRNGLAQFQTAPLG
The assay is described as follows: indirect ELISA, method as in Example 3. The method, then: as §1, with “The” for “The hTIGIT-his protein was diluted to 0.5 μg/mL with CBS buffer, coated in an ELISA plate in 50 μL/well, and left at 4° C. overnight. The”

The target of assay [6] is T2, hTIGIT on the surface of …. The assay is described as follows: flow cytometry on 293F-hTIGIT-short #1B1 cells. The method, then:
as §2
(In general: Flow cytometry measures light scatter and fluorescence of single cells or particles in a stream.)

Assay [7] has as its target T2, hTIGIT on the surface of …. The assay is described as follows: flow cytometry competition on 293F-hTIGIT-short #1B1 cells; competitor PVR-hFc at 6 µg/mL. The procedure:
The 293F-hTIGIT-short #1B1 cell line was digested, terminated, centrifuged, resuspended and counted, and the cell density was adjusted to 4×10⁶ cells/mL. According to 50 μL/tube, 20×10⁴ cells were added into 1.5 mL EP tubes. […] 100 μL of PBS was added into the blank group. Gentle blowing and mixing were performed, and incubation was then performed on ice for 1 hour. After incubation, 500 μL of PBS was added for centrifugal washing once, centrifugation was performed at 2000 rpm for 5 minutes, and the supernatants were discarded. Alexa® 488 fluorescently labeled anti-mouse or anti-human IgG antibody was diluted with PBS (diluted at 1:500) and added to the corresponding tubes in 200 μL/tube, gentle blowing and mixing were performed, and incubation was performed on ice in the dark for 30 minutes. After 30 minutes of incubation, signal detection was performed with a flow cytometer.

The target of assay [8] is T2, hTIGIT on the surface of …. Briefly: flow cytometry competition on 293F-hTIGIT-short #1B1 cells; competitor 4.1D3 at 6 µg/mL, detected with anti-human IgG.

This is an account of results in patent US20250011421A1 (GUANGDONG ANNPO BIOTECHNOLOGY, published 2025).

A word on the EC50: it is the midpoint of the concentration-response curve. In general, IC50 refers to the point on the concentration scale where inhibition reaches its midpoint. The low end stands for greater potency in that assay, the high end for weaker potency in that assay.

B1: hTIGIT humanized antibody h51C1 (antibody, human IgG1, V domains shown)
VH: QVQLVQSGAEVKKPGASVKVSCKASGYTFTEYFIHWVRQAPGQGLEWIGWFYPGSGSIKYNERFKDRVTLTADTSISTAYMELSRLRSDDTAVYYCARHEMRYGNYVLDYWGQGTTVTVSS
VL: QAVVTQEPSLTVSPGGTVTLTCRSSTGAVTTRNYANWVQQKPGQAPRGLIGGTNNRVPGVPARFSGSLLGGKAALTLSGAQPEDEAEYYCGLWYSNHLVFGGGTKLTVLG
notes: also called 51C1-H2L2
Turning to B1, the half-maximal effective concentration (EC50) was determined as 0.007 mg/L in assay [1] and 2.98 mg/L in assay [2]. Also, the half-inhibitory concentration (IC50) in assay [3] is 5.21 mg/L.

B2: hTIGIT humanized antibody h60H5 (antibody, human IgG1, V domains shown)
VH: QVQLVQSGAEVKKPGASVKVSCKTSGYTFTEYTMHWVRQAPGQRLEWIGGINPNNGGTSYNQKFQGRVTITVDTSASTAYMELSSLRSEDTAVYYCARSGNWDYAMDYWGQGTTVTVSS
VL: DIQMTQSPSSMSASVGDRVTITCKASQHVSTAVVWYQQKPGKAPKLLIYSASYRYTGVPDRFSGSGSGTDFTFTISSLQPEDIATYYCQQHYITPWTFGGGTKLEIKR
notes: also called 60H5-H2L1
For the molecule B2, the EC50 came to 0.006 mg/L in assay [1] and 1.57 mg/L in assay [2]. In assay [3], this molecule had an IC50 of 2 mg/L.

B3: hTIGIT mouse-derived antibody m51C1 (antibody, V domains shown)
VH: QVQLQQSGAELVKPGASVKLSCKASGYTFTEYFIHWIKQKSGQGLEWIGWFYPGSGSIKYNERFKDKATLTADKSSSTVYMELSRLTSEDSAVYFCARHEMRYGNYVLDYWGQGTTLTVSS
VL: QAVVTQESALTTSPGETVTLTCRSSTGAVTTRNYANWVQEKPDHLFTGLIGGTNNRVPGVPARFSGSLIGDKAALTITGAQTEDEAIYFCGLWYSNHLVFGGGTKLTVLG
notes: Mouse monoclonal antibody from a hybridoma
In the case of B3, the EC50 in assay [4] is 0.00396 mg/L; in assay [6] it was 0.811 mg/L. Further, the binding result in assay [5] was “no binding”. Moreover, the IC50 in assay [7] stood at 1.35 mg/L; in assay [8] it was 4.08 mg/L.
